From PMC11139964, “L-serine deficiency: on the properties of the Asn133Ser variant of human phosphoserine phosphatase” (Scientific Reports, 2024)
Positions count from the first letter of the chain named. In names and notes the source's numbering stands. Values belong to the molecule of their own block, whether it stands above or below them.

Tests used:
[1] = molecular target: T1, human phosphoserine phosphatase (PSP) (Homo sapiens, UniProt P78330); assay: PNP-coupled phosphate release assay (MESG, […] nm); type: biochemical; settings: read-out: wild-type
T1 construct: gene PSPH; EC 3.1.3.3
T1 sequence (P78330 1-225): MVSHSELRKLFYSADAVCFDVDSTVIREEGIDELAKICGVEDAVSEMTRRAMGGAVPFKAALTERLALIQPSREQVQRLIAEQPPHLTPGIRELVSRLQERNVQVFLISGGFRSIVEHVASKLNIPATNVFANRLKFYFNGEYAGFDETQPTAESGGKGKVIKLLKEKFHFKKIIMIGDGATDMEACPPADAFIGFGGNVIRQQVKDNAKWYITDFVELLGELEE

[2] = molecular target: T2, human phosphoserine phosphatase (PSP) (Homo sapiens, UniProt P78330, N133S); assay: PNP-coupled phosphate release assay (MESG, […] nm); type: biochemical; settings: read-out: Asn133Ser
T2 construct: gene PSPH; EC 3.1.3.3
T2 sequence (P78330 1-225 N133S): T1 sequence (P78330 1-225) with N133S

[3] = molecular target: the molecule itself; assay: SEC; Superdex 75 Increase 5/150 GL, 50 mM HEPES pH 7.0, 100 mM KCl, room temperature, protein loaded at 10 uM; apparent mass from a calibration curve; monomer-dimer
[4] = substrate: N[C@@H](COP(=O)(O)O)C(=O)O; assay: purified protein; type: biochemical, Homo sapiens; settings: 50 mM HEPES, 100 mM KCl, 3 mM MgCl2, pH 7.0, 37 °C, 170 μM acetyl-CoA in coupling system

IC50 [1]: 290 ± 20 µM | IC50 [2]: 250 ± 25 µM
Molecule: N[C@@H](CO)C(=O)O [L-serine]

B1: human phosphoserine phosphatase (PSP), wild-type (enzyme)
chain: SHSELRKLFYSADAVCFDVDSTVIREEGIDELAKICGVEDAVSEMTRRAMGGAVPFKAALTERLALIQPSREQVQRLIAEQPPHLTPGIRELVSRLQERNVQVFLISGGFRSIVEHVASKLNIPATNVFANRLKFYFNGEYAGFDETQPTAESGGKGKVIKLLKEKFHFKKIIMIGDGATDMEACPPADAFIGFGGNVIRQQVKDNAKWYITDFVELLGELEE
notes: phosphoserine phosphatase (PSP), human, EC 3.1.3.3; gene cloned in the NdeI/BamHI sites of pET28a; also called wt PSP; wild-type PSP; source: E. coli BL21(DE3), purified (published procedure)
stoichiometry N [3]: 2

B2: Asn133Ser variant of human phosphoserine phosphatase (PSP) (enzyme)
chain: B1 chain with N131S
notes: phosphoserine phosphatase (PSP), human, EC 3.1.3.3, with the patients' missense variant c.398A > G p.(Asn133Ser); mutated pET28a plasmid prepared by GenScript; Natural variant found in patients and in gnomAD; Same construct as m1 apart from the substitution; also called Asn133Ser PSP; N133S PSP; source: E. coli BL21(DE3), purified (> 90% purity, published procedure)
stoichiometry N [3]: 2

B3: human phosphoserine phosphatase (PSP) (Homo sapiens) (protein)
chain: T1 sequence (P78330 1-225)
notes: EC 3.1.3.3
Km [4]: 42 ± 13 µM | kcat [4]: 38 ± 3 s⁻¹ | kcat/Km [4]: 900000 M⁻¹ s⁻¹

B4: human phosphoserine phosphatase (PSP) (Homo sapiens; N133S) (protein)
chain: T1 sequence (P78330 1-225) with N133S
notes: EC 3.1.3.3
Km [4]: 31 ± 5 µM | kcat [4]: 28 ± 1 s⁻¹ | kcat/Km [4]: 900000 M⁻¹ s⁻¹
